This assay deals with human CTLA-4-murine Ig fusion protein (human) (UniProt P16410). Briefly: sandwich ELISA on the CTLA4-muIg standard with the blocking pair BNI3 (coated) and biotinylated AS-33 (detecting).

Regarding “BNI3, CTLA-4 blocking mouse IgG2a mAb (antibody)”, the limit of sensitivity is 6.25 ng/mL.

Values taken from patent US20090214553A1.
